Experimental data taken from PMC11125772, “A Self-Assembling Pfs230D1-Ferritin Nanoparticle Vaccine Has Potent and Durable Malaria Transmission-Reducing Activity” (Vaccines, 2024).

Target: the molecule itself
Experiment: SEC-SAXS; SIBYLS beamline 12.3.1; Shodex KW-804 column for Pfs230D1-ferritin, Shodex KW-802.5 column for Pfs230D1; molecular weight from SAXS (ATSAS)

B1: ferritin (H. pylori ferritin nanoparticle construct without Pfs230D1) (other)
chain: GGSGGSGGGGSGESQVRQQFSKDIEKLLNEQVNKEMQSSNLYMSMSSWCYTHSLDGAGLFLFDHAAEEYEHAKKLIIFLNENNVPVQLTSISAPEHKFEGLTQIFQKAYEHEQHISESINNIVDHAIKSKDHATFNFLQWYVAEQHEEEVLFKDILDKIELIGNENHGLYLADQYVKGIAKSRKS
notes: linker that contains residues from the N-terminal extension found in bullfrog lower subunit ferritin; Helicobacter pylori ferritin (WP_000949190.1), amino acids 3-167, with I7E and N19Q; Cloned in a modified pHLSec with a secretion signal ahead of the subunit; purified without a tag; Subunit theoretical molecular weight printed as 21.2 kDa; also called ferritin construct; Helicobacter pylori …
With B1 the “stoichiometry N” value was 24.

B2: Pfs230D1-ferritin (other)
chain: SVLQSGALPSVGVDELDKIDLSYETTESGDTAVSEDSYDKYASNNTNKEYVCDFTDQLKPTESGPKVKKCEVKVNEPLIKVKIICPLKGSVEKLYDNIEYVPKKSPYVVLTKEETKLKEKLLSKLIYGLLISPTVNEKENNFKEGVIEFTLPPVVHKATVFYFICDNSKTEDDNKKGNRGIVEVYVEPYGNKINGGGGGSGESQVRQQFSKDIEKLLNEQVNKEMQSSNLYMSMSSWCYTHSLDGAGLFLFDHAAEEYEHAKKLIIFLNENNVPVQLTSISAPEHKFEGLTQIFQKAYEHEQHISESINNIVDHAIKSKDHATFNFLQWYVAEQHEEEVLFKDILDKIELIGNENHGLYLADQYVKGIAKSRKS
notes: Pfs230 of Plasmodium falciparum 3D7 (XP_001349600.1): a portion of the N-terminal disordered region, amino acids 542-588, and domain 1 (D1), amino acids 589-736; linker that contains residues from the N-terminal extension found in bullfrog lower subunit ferritin; Helicobacter pylori ferritin (WP_000949190.1), amino acids 3-167, with I7E and N19Q; Cloned in a modified pHLSec with a secretion …
In the case of B2, the “stoichiometry N” value is reported as 24.
